Results reported in paper PMC8463545.
pKd: −log10 of the molar value.

Experiments:
Assay in all cases: SPR
Conditions in all cases: EMSA: 10 mM Tris-HCl pH 7.5, 50 mM KCl, 1 mM DTT, 0.4% glycerol, 20 uL, 28 C, 25-30 min; 5% native gel, 0.5x TBE, 4 C; SPR conditions not given
[1] = system: HtsH1C-Flag-His (Lysobacter enzymogenes OH11)
[2] = system: HtsH2C-HA-His (Lysobacter enzymogenes OH11)
[3] = system: HtsH3C-Myc-His (Lysobacter enzymogenes OH11)

plafB (SPR)
pKd [1]: 6.27 | pKd [2]: 5.86 | pKd [3]: 6.60
